Measured values taken from patent US20030228593A1.

Target: biotinylated 151AcPhe mutant GFP [GFP: P42212]
Assay: SAv-dependent gel-shift assay, 10% native PAGE

- percent of GFP band retarded: 80%
Substance: streptavidin (from UniProt P22629 37-163)
